Test results from patent publication US20200048328A1 (Bristol-Myers Squibb, published 2020).
Like-named read-outs stand apart in the source and are kept apart here.

Tests used:
mouse serum albumin [1] = target: T1, mouse serum albumin (mouse, UniProt P07724 25-608); assay: SPR, albumin immobilized, acetate pH 7.4; acetate pH 7.4, MuSA
T1 construct: also called MSA; MuSA

human PCSK9 = target: T2, human PCSK9 (human, UniProt Q8NBP7 31-692); assay: SPR, dual injection on immobilized albumin
T2 construct: also called hPCSK9; huPCSK9

human serum albumin [2] = target: T3, human serum albumin (human, UniProt P02768 25-609); assay: SPR, albumin immobilized, HBSP pH 7.4
T3 construct: immobilized on chips or coated on plates elsewhere; also called HSA; HuSA

mouse serum albumin [3] = target: T1, mouse serum albumin; assay: SPR, albumin immobilized, HBSP pH 7.4
rhesus serum albumin [4] = target: T4, rhesus serum albumin (rhesus, UniProt Q28522 17-600); assay: SPR, albumin immobilized, HBSP pH 7.4
T4 construct: also called RhSA; Rh-SA
T4 sequence (Q28522 17-600 limits assumed): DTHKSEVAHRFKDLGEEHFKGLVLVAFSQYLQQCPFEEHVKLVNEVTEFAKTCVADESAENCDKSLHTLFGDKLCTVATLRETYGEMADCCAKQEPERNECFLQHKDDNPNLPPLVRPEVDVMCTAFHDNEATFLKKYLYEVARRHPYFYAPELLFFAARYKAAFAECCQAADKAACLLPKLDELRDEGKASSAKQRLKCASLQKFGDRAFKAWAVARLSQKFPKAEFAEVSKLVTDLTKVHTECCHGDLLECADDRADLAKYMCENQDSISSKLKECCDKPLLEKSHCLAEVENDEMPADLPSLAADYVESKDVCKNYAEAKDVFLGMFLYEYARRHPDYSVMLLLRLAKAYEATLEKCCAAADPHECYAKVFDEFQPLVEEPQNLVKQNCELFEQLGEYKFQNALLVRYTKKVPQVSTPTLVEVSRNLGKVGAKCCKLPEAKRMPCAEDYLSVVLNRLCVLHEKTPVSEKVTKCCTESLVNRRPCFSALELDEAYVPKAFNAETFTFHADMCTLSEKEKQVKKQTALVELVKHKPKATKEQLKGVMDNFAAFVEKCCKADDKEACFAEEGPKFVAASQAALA

human serum albumin [5] = target: T3, human serum albumin; assay: SPR, albumin immobilized, HBSP pH 7.4; remark: listed apart in the source
mouse serum albumin [6] = target: T1, mouse serum albumin; assay: SPR, albumin immobilized, HBSP pH 7.4; remark: listed apart in the source
rhesus serum albumin [7] = target: T4, rhesus serum albumin; assay: SPR, albumin immobilized, HBSP pH 7.4; remark: listed apart in the source

T1 sequence (P07724 25-608 limits assumed): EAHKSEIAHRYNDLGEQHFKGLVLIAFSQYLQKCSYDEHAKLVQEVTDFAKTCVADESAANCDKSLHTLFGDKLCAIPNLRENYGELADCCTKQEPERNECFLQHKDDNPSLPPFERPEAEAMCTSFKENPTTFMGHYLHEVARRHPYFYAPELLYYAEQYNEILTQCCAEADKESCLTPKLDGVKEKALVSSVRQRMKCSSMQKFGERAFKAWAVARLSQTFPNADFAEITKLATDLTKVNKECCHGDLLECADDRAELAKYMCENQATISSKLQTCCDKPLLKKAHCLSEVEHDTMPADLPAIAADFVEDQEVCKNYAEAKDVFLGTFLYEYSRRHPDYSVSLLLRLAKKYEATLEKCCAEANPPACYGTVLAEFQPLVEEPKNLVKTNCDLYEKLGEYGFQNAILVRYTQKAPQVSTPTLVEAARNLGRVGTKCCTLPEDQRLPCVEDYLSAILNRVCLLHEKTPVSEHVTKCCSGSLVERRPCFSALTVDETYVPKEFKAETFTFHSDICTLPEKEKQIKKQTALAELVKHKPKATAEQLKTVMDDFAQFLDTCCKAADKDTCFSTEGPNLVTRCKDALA

kon (mouse serum albumin [1]): ~76800 M⁻¹ s⁻¹ | binding result (human PCSK9): no binding | Kd (human serum albumin [2]): 10.7 nM | koff (human serum albumin [2]): 0.000192 s⁻¹ | kon (human serum albumin [2]): 17900 M⁻¹ s⁻¹ | Kd (mouse serum albumin [3]): 3.3 nM | koff (mouse serum albumin [3]): 0.000262 s⁻¹ | kon (mouse serum albumin [3]): 79600 M⁻¹ s⁻¹ | Kd (rhesus serum albumin [4]): 11.4 nM | koff (rhesus serum albumin [4]): 0.000267 s⁻¹ | kon (rhesus serum albumin [4]): 23500 M⁻¹ s⁻¹ | Kd (human serum albumin [5]): 10.6 nM | koff (human serum albumin [5]): 0.000219 s⁻¹ | kon (human serum albumin [5]): 20700 M⁻¹ s⁻¹ | Kd (mouse serum albumin [6]): 3.43 nM | koff (mouse serum albumin [6]): 0.000272 s⁻¹ | kon (mouse serum albumin [6]): 79100 M⁻¹ s⁻¹ | Kd (rhesus serum albumin [7]): 12.7 nM | koff (rhesus serum albumin [7]): 0.000276 s⁻¹ | kon (rhesus serum albumin [7]): 21800 M⁻¹ s⁻¹
B1: PKE2 Adnectin 2629_E06 (designed binder)
chain: MGVSDVPRDLEVVAATPTSLLISWDAPAVTVRYYRITYGREVQKYSDLGPLYIYQEFTVPGSKSTATISGLKPGVDYTITVYAVTGSGESPASSKPISINYRTEIDKPSQHHHHHH
notes: 10Fn3 domain with modified CD loop; the entry includes the His6 tail; also called ADX_2629_E06
